Test results as given in article PMC6448830 (PLoS Pathogens, 2019).

Tests used:
[1] = biological target: T1, A. trivirgatus 2B4-Fc fusion protein (Aotus trivirgatus); experiment: SPR; settings: both partners purified
T1 construct: also called host 2B4-Fc; aoCD244-Fc

[2] = biological target: T2, human 2B4-Fc fusion protein (human, UniProt Q9BZW8 22-229); experiment: SPR; settings: both partners purified
T2 construct: also called h2B4-Fc; h2B4
T2 sequence: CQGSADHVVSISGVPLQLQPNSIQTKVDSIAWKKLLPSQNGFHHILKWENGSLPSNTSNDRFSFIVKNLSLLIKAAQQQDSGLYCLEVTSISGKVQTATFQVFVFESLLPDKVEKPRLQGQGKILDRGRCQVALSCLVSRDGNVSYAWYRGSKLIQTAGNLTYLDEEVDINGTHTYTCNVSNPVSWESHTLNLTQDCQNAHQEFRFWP

B1: A. trivirgatus CD48-Fc fusion protein (Fc fusion)
chain: TSIQGNSVDVINAISGGNVTLNISESLPENVREITWFCTYHQKIADWDVKRLKYFDNKFKGRVRLDYQSGALYISKIQKEDANIYIMRVLKETMYEQEWKIRLQVFDPVPKPDIKIEKTAKVEDDCYLKLSCVIPDESVNYTWYGDKEPFPKEFQSGVLETTLKSQDYSRCYTCQVSNPVSSKNDTVCFS
modifications: biotin (biotinylated host CD48-Fc in the blocking ELISA)
Binder B1 has a Kd [1] of 3.3 nM.

B2: A43-Fc fusion protein (Fc fusion)
chain: VNIVNALVGGNITLNISESLPENVREITWFCTYDQKIADWDVKRLKYFDNKFKGRVRLDSQSGALYLSRVQKEDANIYIMRVLKDTMFEQDWKIRLQVFDEVDTPNITLVNTTLISDTCYVNFSCSHHDSLCYTSNENCTWYHFSQNITKTPPWNHSASSNSCYTCEFKNPVHRKNITMCISGCGQT
modifications: Wild-type viral ectodomain. The human IgG1 Fc carrier (dimerising) and CD33 leader are left out. The C-terminal limit follows from the printed membrane-proximal region 214-225, so Ig2 ends at …
In the case of B2, the Kd [1] is reported as 1.3 nM, the “fold slower dissociation than host CD48” value [1] is reported as 2.6 fold and the koff [1] is reported as 0.000188 s⁻¹. For the same binder, the kon [1] was 116000 M⁻¹ s⁻¹, the Kd [2] was 3.6 nM and the “fold higher affinity than hCD48” value [2] was 6 fold. For the same binder, the “fold slower dissociation than hCD48” value [2] was 55 fold, the koff [2] was 0.000405 s⁻¹ and the kon [2] was 169000 M⁻¹ s⁻¹.
